According to patent US20170173105A1, “AUTOASSEMBLING PEPTIDES FOR THE TREATMENT OF PULMONARY LEAKAGE” (3-D MATRIX, LTD., priority 2014, published 2017):

Key:
Type in all cases: physicochemical
[1] = Rheological measurements of RADA16 mixed with salts (stiffness, reversibility, gelation kinetics); settings: for gelation kinetics by ion: 0.5% RADA16; for storage modulus: (RADA)4 about 0.5 w/v percent
Method: In a rheological comparison of 2.5% RADA16 and 2.5% RADA16+NaCl, KCl, and CaCl2, solutions of 0.5% RADA16 mixed with 0.005, 0.05, 0.125, 0.25, 0.5, and 1 M NaCl, KCl, and CaCl2 were prepared. The anion, chloride (Cl—), was kept the same to observe the effect of the cations, sodium (Na+), potassium (K+), and calcium (Ca2+). FIG. 21 provides a basic understanding of how varying the cations of a salt solution effects the viscoelastic properties and the stiffness of self-assembling peptides. […] This should be because Ca has […] higher ionic strength than Na and K at the same molar concentrations. Therefore, influence of salts on the peptide solution is more related to their ionic strength rather than their molar concentration, as shown in FIGS. 17-18 and Table 2a-c. In some embodiments, there is a correlation between the properties of the peptide solutions with salts based on the concentration of the salts.
Rheological measurements of stiffness of 2.5% RADA16 and 2.5% RADA16+0.25 M CaCl2 was evaluated.
Rheological measurements of reversibility of 0.5% RADA16 solution with +0.125, 0.25, and 0.5 M CaCl2 were evaluated. Solutions of 0.5% RADA16 mixed with 0.125, 0.25, and 0.5 M CaCl2 were prepared. The structure of the self-assembled peptide solution were disrupted thoroughly by application of mechanical stress through vortexing and sonication. The mixtures were placed at room temperature for 48 hours to allow self-assembly to take place. […] FIG. 23a presents raw rheological data of the control peptide solution with salts and the perturbed peptide solutions with salts while FIG. 23b provides a comparison of stiffness of the control peptide solutions and the perturbed peptide solutions.
Rheological measurements of gelation kinetics of 0.5% RADA16+NaCl, KCl, and CaCl2 were evaluated. A solution of 0.5% RADA16 was prepared and gelation kinetics were observed by treatment with several cations (e.g. Na, […], K) and anions (e.g. Cl, CO3, PO4, SO4). It was determined how long it will take for the peptide mixtures to gel and how to control that gelation time by varying the cation/anion type and concentration. […] In vivo and in vitro qualitative experiments and the resulting observations were supportive of these conclusions.
Due to the success of topically added solution of NaCl gently massaged into 2.5% RADA16 increasing the burst pressure of 2.5% RADA16, other salt based solutions were completely mixed with RADA16 and their mechanical properties were measured. […] The results can be seen in FIG. 29 with respect to the storage modulus (i.e. mechanical strength) of 0.5% PuraMatrix (RADA16) mixed with NaCl, KCl, or CaCl2 at varying concentrations.

[2] = as above; settings: (RADA)4 about 2.5 w/v percent; calcium chloride about 0.125 M
[3] = Rheological properties of peptide solutions (1%) before and after DMEM treatment (rheometer); settings: DMEM 2 minutes, compared with weaker peptide solutions (i.e. PuraMatrix®)
Method: The effects of Dulbecco's modified Eagle's medium (DMEM) (pH 7.4) on the rheological properties of IEIK13, KLD12, and PuraMatrix® were evaluated on a rheometer (AR500, TA Instruments) with 40 mm plates. DMEM is generally a cell culture medium that contains 6.4 g/L of NaCl, 3.4 g/L NaHCO3 (sodium bicarbonate), minor amounts of other salts, various amino acids, and 4.5 g/L of glucose. The pH level of DMEM is generally 7.2±0.2 and the osmolality is 335±30 mOsm/Kg H2O; both measurements are close to human physiological fluids such as blood.
Peptide solutions (1%) were kept at 4° C. for at least 48 hours before testing. To perform the experiment, 1 mL of peptide solution was gently pipetted and placed on the plate of the rheometer. 2 mL of DMEM solution was gently added around the peptide solution. The peptide solution was treated with DMEM for two minutes, then the media was removed, and the plates were placed at a measuring geometry gap at around 450 μm. Measurements were performed at 37° C. after 2 min of relaxation time. Frequency tests were performed from 1 rad/s to 100 rad/s at 1 Pa of oscillation stress.
The rheological properties of the peptides (1%) were compared before and after DMEM treatment for 2 minutes, as shown in FIG. 1A. […]

Substance	mechanical properties (storage modulus) with calcium chloride compared with sodium chloride or potassium chloride ([1]; 0.5% PuraMatrix (RADA16) mixed with salts at varying concentrations)	gelation kinetics by ion ([1]; treatment with chlorine)	gelation kinetics by ion ([1]; treatment with sulfate)	reversibility after perturbation ([1]; 0.5% RADA16 with CaCl2 within the optimal salt concentration range, vortexing and sonication, 48 hours room temperature)	stiffness with added CaCl2 compared with peptide alone ([1]; 2.5% RADA16 vs 2.5% RADA16 with CaCl2 (0.25 M / 0.125 M printed))	storage modulus ([1]; calcium chloride about 0.125 M)	storage modulus ([1]; calcium chloride about 0.250 M)	storage modulus ([1]; calcium chloride about 0.500 M)	enhancement of stiffness by cations ([1]; RADA16 mixed with NaCl, KCl, CaCl2 at the same molar concentrations (0.005-1 M))	storage modulus [2]	fold increase of storage modulus after DMEM treatment [3]
Arg-Ala-Asp-Ala-Arg-Ala-Asp-Ala-Arg-Ala-Asp-Ala-Arg-Ala-Asp-Ala [PuraMatrix ®]	greater mechanical properties	quickest gelation	slowest gelation	remained reversible	noticeable increase in stiffness	about 25 Pa	about 44 Pa	about 52 Pa	Ca provided the best enhancement of stiffness	about 600 Pa	
Ile-Glu-Ile-Lys-Ile-Glu-Ile-Lys-Ile-Glu-Ile-Lys-Ile [IEIK13]											lower-fold increase
